# “Also recorded” adds a separate entry of the source.
# B1: HMGB1: high mobility group box 1, RAGE ligand (protein, UniProt P09429 1-215, looked up)
# High mobility group protein B1: MGKGDPKKPRGKMSSYAFFVQTCREEHKKKHPDASVNFSEFSKKCSERWKTMSAKEKGKFEDMAKADKARYEREMKTYIPPKGETKKKFKDPNAPKRPPSAFFLFCSEYRPKIKGEHPGLSIGDVAKKLGEMWNNTAADDKQPYEKKAAKLKEKYEKDIAAYRAKGKPDAAKKGVVKAEKSKKKKEEEEDEEDEEDEEEEEDEEDEDEEEDDDDE
# B2: S100B: recombinant S100 family protein, RAGE ligand (protein, listed as Homo sapiens)
# chain: MSELEKAMVALIDVFHQYSGREGDKHKLKKSELKELINNELSHFLEEIKEQEVVDKVMETLDNDGDGECDFQEFMAFVAMVTTACHEFFEHE
# B3: S100A7: recombinant S100 family protein, RAGE ligand (protein, listed as Homo sapiens)
# chain: MSNTQAERSIIGMIDMFHKYTRRDDKIEKPSLLTMMKENFPNFLSACDKKGTNYLADVFEKKDKNEDKKIDFSEFLSLLGDIATDYHKQSHGAAPCSGGSQ
# B4: S100A8: recombinant S100 family protein, RAGE ligand (protein, listed as Homo sapiens)
# chain: MLTELEKALNSIIDVYHKYSLIKGNFHAVYRDDLKKLLETECPQYIRKKGADVWFKELDINTDGAVNFQEFLILVIKMGVAAHKKSHEESHKE
# B5: Calprotectin: homodimers, heterodimers and heterotetramers of S100A8 and S100A9 (protein, UniProt P05109 1-93; P06702 1-114, looked up)
# Protein S100-A8: B4 chain
# Protein S100-A9: MTCKMSQLERNIETIINTFHQYSVKLGHPDTLNQGEFKELVRKDLQNFLKKENKNEKVIEHIMEDLDTNADKQLSFEEFIMLMARLTWASHEKMHEGDEGPGHHHKPGLGEGTP
# B6: S100A9: recombinant S100 family protein, RAGE ligand (protein, listed as Homo sapiens)
# chain: B5 Protein S100-A9
# Tested on: Primary human myoblast differentiated into terminal myotubes
# Assay: Cachexia induction by recombinant S100/HMGB1 proteins, myosin HC in-cell Western
# Type: cell-based
# Conditions: recombinant ligands in Hanks Balance Salt Solution applied 1:2 v:v to fresh maintenance media each day for 3 days
# Protocol: FIG. 1 is a graph showing the differential cachexia-inducing activity of r-S100 faimily proteins. All rpooteins are tested in HBSS buffer. Myosin HC is measured in an in-cell Western assay.
# FIGS. 1-4 illustrate the effect of various proteins of the S100 family, as well as HMGB1, as cachexia inducers when conmpared with cachexia-inducing media. Primary human myoblast were plated and differentiated into terminal myotubes as previously described. Recombinant ligands were prepared at the same dose curve in Hanks Balance Salt Solution (buffer) and applied 1:2 v:v to fresh maintenance media each day for 3 days. Cells were assessed for myosin HC content by in-cell Western staining as previously described.
Molecule,induction of the cachectic phenotype (myosin HC content),induction of the cachectic phenotype (myosin HC content) (listed as S100 A7),induction of the cachectic phenotype (myosin HC content) (listed as A8),induction of the cachectic phenotype (myosin HC content) (listed as A9)
B1,do not induce precachexia and/or cachexia; also recorded: not cachexogenic in muscle,–,–,–
B2,little or no activity; also recorded: do not induce precachexia and/or cachexia,–,–,–
B3,key effector molecules in inducing precachexia and/or cachexia,inducers of the cachectic phenotype,–,–
B4,key effector molecules in inducing precachexia and/or cachexia,–,inducers of the cachectic phenotype,–
B5,key effector molecules in inducing precachexia and/or cachexia,–,–,–
B6,key effector molecules in inducing precachexia and/or cachexia,–,–,inducers of the cachectic phenotype

# Source: patent US20170240632A1, “COMPOSITIONS AND METHODS FOR IDENTIFYING AND TREATING CACHEXIA OR PRE-CACHEXIA” (THE BROAD INSTITUTE INC., priority 2014, published 2017)
